Values quoted from earlier work as cited in paper PMC6310256.

Target: complement C5 (human, recombinant) (UniProt P01031)
Assay: SPR (Biacore), as reported in ref 17
Settings: cited from earlier work

Sequence of UniProt P01031 (P01031 whole entry): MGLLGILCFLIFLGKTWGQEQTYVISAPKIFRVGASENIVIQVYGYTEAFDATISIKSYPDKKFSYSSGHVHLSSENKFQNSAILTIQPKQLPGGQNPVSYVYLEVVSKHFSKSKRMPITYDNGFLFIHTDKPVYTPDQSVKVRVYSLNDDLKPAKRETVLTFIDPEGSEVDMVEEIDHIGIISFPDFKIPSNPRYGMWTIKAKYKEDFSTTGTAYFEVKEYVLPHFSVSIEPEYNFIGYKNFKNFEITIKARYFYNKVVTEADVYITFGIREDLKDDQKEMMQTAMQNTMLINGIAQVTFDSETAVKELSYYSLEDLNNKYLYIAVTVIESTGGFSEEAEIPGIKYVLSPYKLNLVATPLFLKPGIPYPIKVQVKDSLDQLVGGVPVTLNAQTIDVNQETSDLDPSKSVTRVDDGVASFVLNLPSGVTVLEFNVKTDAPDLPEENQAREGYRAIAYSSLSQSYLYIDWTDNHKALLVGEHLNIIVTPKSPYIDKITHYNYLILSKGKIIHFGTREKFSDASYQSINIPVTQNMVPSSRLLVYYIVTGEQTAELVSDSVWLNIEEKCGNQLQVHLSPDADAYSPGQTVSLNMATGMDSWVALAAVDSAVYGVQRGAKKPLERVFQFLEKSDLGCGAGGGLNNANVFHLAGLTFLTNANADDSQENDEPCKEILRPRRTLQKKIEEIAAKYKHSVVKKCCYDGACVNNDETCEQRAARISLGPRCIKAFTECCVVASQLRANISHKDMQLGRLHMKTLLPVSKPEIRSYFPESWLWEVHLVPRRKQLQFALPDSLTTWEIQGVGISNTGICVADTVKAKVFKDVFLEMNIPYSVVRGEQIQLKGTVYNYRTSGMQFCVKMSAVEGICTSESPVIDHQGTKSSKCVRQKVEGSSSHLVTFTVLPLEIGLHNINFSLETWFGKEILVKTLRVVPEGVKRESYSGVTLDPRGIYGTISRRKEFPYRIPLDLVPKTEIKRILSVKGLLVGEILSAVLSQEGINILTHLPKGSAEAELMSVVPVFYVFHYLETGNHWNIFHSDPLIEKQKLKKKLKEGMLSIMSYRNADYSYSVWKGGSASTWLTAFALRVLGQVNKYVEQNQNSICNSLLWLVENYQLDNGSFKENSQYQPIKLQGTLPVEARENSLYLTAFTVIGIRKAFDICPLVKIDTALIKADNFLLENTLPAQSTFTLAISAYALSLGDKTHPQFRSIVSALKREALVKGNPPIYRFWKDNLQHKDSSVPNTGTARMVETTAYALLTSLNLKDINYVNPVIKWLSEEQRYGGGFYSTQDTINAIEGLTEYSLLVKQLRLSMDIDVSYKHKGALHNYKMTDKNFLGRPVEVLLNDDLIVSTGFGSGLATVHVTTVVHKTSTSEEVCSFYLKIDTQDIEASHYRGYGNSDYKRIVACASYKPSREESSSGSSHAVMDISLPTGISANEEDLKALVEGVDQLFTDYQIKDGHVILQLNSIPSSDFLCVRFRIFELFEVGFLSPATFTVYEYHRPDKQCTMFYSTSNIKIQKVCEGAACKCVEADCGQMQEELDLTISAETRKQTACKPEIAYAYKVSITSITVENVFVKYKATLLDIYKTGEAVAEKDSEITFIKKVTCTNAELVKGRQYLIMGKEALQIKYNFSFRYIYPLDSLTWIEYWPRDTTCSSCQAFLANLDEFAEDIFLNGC

**Q.** With “SKY59 (crovalimab, RO7112689) Includes am1-am6 and pm1-pm3 (pm3 is light chain F92K, Kabat), plus charge, deimmunization and Fc mutations that are not listed.” as the substance, how does the kd (pH 5.8) read?
**A.** Its kd is 0.0145 s⁻¹.

**Q.** And the KD (pH 7.4)?
**A.** Its KD is 0.152 nM.

**Q.** What about the ka (pH 7.4) of the same substance?
**A.** The ka was 1.44e+06 M⁻¹ s⁻¹.
